Laboratory results taken from US20220281997A1 (NANJING GENSCRIPT BIOTECH, published 2022).

How the values were obtained:
AS154 VHH = molecular target: T1, AS154 VHH (camel-derived); assay: indirect ELISA, VHH coated
T1 construct: One of the 10 different camel-derived nanobodies; not shown: His tag (VHH-His)
Description: (§1) The ELISA plate was coated with 10 different VHHs at […] in 100 μl/well of PBS at 4° C. overnight, respectively; the plate was washed with PBS-T (0.05% Tween) and blocked with 200 μl/well of PBST containing 1% BSA at 37° C. for 0.5 hours; the blocking solution was aspirated and discarded, and 100 μl of 1 μg/ml purified antibodies were added to the first well, diluted in a 3-fold gradient for a total of 11 test concentration gradients and incubated at room temperature for 1 hour; the plate was washed three times with PBST and incubated with 100 μl/well of goat anti-rabbit IgG conjugated with horseradish peroxidase (GenScript Goat Anti-Rabbit IgG Antibody (H&L) [HRP], pAb; CAT #: A00098) at 37° C. for 0.5 hours; the plate was washed five times with PBST, and then a TMB color developing solution was added; and the plate was incubated in the dark at room temperature for 15 minutes. The reaction was stopped by adding 50 μl of 1 M HCl stop solution. The plate was read at 450 nm using a microplate reader; and the binding abilities of 15 clones to VHH-His were obtained (as shown in FIGS. 6a and 6b). […] On one hand, the affinities of the antibody of the same camel-derived nanobody to different camel-derived nanobodies were different; on the other hand, the affinities of different antibodies of camel-derived nanobodies to the same camel-derived nanobody were different. However, on the whole, all the 15 purified antibodies can be recognized with 10 different camel-derived nanobodies.

AS325 VHH = molecular target: T2, AS325 VHH (camel-derived); assay: indirect ELISA, VHH coated
T2 construct: One of the 10 different camel-derived nanobodies; not shown: His tag (VHH-His)
Description: as §1

AS656 VHH = molecular target: T3, AS656 VHH (camel-derived); assay: indirect ELISA, VHH coated
T3 construct: One of the 10 different camel-derived nanobodies; not shown: His tag (VHH-His)
Description: as §1

AS673 VHH = molecular target: T4, AS673 VHH (camel-derived); assay: indirect ELISA, VHH coated
T4 construct: One of the 10 different camel-derived nanobodies; not shown: His tag (VHH-His)
Description: as §1

AS587 VHH = molecular target: T5, AS587 VHH (camel-derived); assay: indirect ELISA, VHH coated
T5 construct: One of the 10 different camel-derived nanobodies; not shown: His tag (VHH-His)
Description: as §1

AS588 VHH = molecular target: T6, AS588 VHH (camel-derived); assay: indirect ELISA, VHH coated
T6 construct: One of the 10 different camel-derived nanobodies; not shown: His tag (VHH-His)
Description: as §1

AS200 VHH = molecular target: T7, AS200 VHH (camel-derived); assay: indirect ELISA, VHH coated
T7 construct: One of the 10 different camel-derived nanobodies; not shown: His tag (VHH-His)
Description: as §1

AS988 VHH = molecular target: T8, AS988 VHH (camel-derived); assay: indirect ELISA, VHH coated
T8 construct: One of the 10 different camel-derived nanobodies; not shown: His tag (VHH-His)
Description: as §1

AS675 VHH = molecular target: T9, AS675 VHH (camel-derived); assay: indirect ELISA, VHH coated
T9 construct: One of the 10 different camel-derived nanobodies; not shown: His tag (VHH-His)
Description: as §1

AS519 VHH = molecular target: T10, AS519 VHH (camel-derived); assay: indirect ELISA, VHH coated
T10 construct: One of the 10 different camel-derived nanobodies; not shown: His tag (VHH-His)
Description: as §1

[1] = molecular target: T11, His-tag camel-derived nanobody AS718 VHH-His (camel-derived); assay: indirect ELISA, AS718 VHH-His coated, hybridoma supernatant
T11 construct: Immunogen; recombinantly expressed with a C-terminal His tag; also called immunogen AS718; immunogen AS718 VHH-His; not shown: C-terminal His tag
Description: The rabbit spleen was extracted and homogenized to produce a single-cell suspension, and a single-cell suspension of myeloma cells was prepared at the same time. 1.0×10⁸ splenocytes were fused with 1.2×10⁵ myeloma cells by electrofusion; the fused cells were resuspended in 100 ml of DMEM/10% FBS culture medium containing hybridoma selective agents, thymidine, hypoxanthine and aminopterin, and transferred to a 150×96-well plate in a volume of 100 μl with a pipette; and the plate was incubated at 37° C. in 6% CO₂. After 9 days of incubation, the indirect ELISA was used to evaluate the binding ability of the antibody in the supernatant to VHH-His, indicating the presence of the antibody to VHH-His.
The ELISA plate was coated with 100 μl/well of 0.5 μg/ml VHH-His or His protein in PBS at 4° C. overnight; the plate was washed with PBS-T (0.05% Tween20) and blocked with 200 μl/well of PBST containing 1% BSA at 37° C. for 0.5 hours; the blocking solution was aspirated and discarded, and 100 μl of hybridoma cell culture supernatant was added to each well and then incubated at room temperature for 1 hour; after the incubation, the supernatant was discarded, and the plate was washed three times with PBST and incubated with 100 μl/well of goat anti-rabbit IgG conjugated with horseradish peroxidase (GenScript Goat Anti-Rabbit IgG Antibody (H&L) [HRP], pAb; CAT #: A00098) at 37° C. for 0.5 hours; the plate was washed five times with PBST, and then a TMB color developing solution was added; and the plate was incubated in the dark at room temperature for 15 minutes. The reaction was stopped by adding 50 μl of 1 M HCl stop solution. The plate was read at 450 nm using a microplate reader. In FIG. 3, by the mode of indirect ELISA, immunogen AS718 VHH-His was used to coat the ELISA detection plate, and the titers of the supernatant stock solutions of 15 parent clones were detected by OD450 reading, and the cross-reactions thereof with the His-tag protein were detected at the same time to exclude non-specific combinations. In the experiment, the positive serum was used as a positive control for immunogen AS718 VHH-His, and the Anti-His antibody was used as a positive control for detection target His-tag protein in the reverse screening. The detection value greater than 0.5 was determined to be positive, and the detection value less than 0.2 was determined to be negative.

Measured: binding result

T10 sequence (VHH, as listed by the source): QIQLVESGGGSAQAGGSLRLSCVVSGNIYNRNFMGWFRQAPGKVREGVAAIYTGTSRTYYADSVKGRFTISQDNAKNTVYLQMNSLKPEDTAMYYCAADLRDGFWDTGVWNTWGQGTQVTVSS
T1 sequence (VHH, as listed by the source): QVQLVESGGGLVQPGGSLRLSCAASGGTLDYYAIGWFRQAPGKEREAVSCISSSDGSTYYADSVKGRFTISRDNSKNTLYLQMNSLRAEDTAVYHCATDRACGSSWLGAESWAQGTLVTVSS
T7 sequence (VHH, as listed by the source): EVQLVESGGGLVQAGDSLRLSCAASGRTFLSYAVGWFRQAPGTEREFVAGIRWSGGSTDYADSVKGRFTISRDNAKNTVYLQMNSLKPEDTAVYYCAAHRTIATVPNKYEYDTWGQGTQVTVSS
T8 sequence (VHH, as listed by the source): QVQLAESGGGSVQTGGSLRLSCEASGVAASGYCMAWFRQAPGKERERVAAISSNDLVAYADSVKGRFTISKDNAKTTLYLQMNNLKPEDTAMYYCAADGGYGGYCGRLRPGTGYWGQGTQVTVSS
T9 sequence (VHH, as listed by the source): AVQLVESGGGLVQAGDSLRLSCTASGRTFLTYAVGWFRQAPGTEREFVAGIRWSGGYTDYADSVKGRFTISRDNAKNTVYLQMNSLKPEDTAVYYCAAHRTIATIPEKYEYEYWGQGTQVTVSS
T5 sequence (VHH, as listed by the source): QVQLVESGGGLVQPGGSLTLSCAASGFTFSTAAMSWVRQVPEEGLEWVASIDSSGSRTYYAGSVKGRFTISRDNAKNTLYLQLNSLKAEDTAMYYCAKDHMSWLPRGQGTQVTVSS
T3 sequence (VHH, as listed by the source): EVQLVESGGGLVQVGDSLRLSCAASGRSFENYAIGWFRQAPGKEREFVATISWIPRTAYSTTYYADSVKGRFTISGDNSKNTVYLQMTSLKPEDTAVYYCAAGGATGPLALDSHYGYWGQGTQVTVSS
T6 sequence (VHH, as listed by the source): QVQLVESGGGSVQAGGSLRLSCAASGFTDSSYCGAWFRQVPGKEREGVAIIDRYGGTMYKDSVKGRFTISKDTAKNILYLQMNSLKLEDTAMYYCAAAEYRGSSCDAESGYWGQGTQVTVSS
T2 sequence (VHH, as listed by the source): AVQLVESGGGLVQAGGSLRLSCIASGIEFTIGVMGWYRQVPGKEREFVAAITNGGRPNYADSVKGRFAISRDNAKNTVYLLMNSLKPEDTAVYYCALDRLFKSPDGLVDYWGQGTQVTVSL
T11 sequence (VHH, as listed by the source): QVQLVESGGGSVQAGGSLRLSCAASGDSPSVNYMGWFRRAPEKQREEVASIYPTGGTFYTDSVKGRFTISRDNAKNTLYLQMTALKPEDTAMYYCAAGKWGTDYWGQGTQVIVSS
T4 sequence (VHH, as listed by the source): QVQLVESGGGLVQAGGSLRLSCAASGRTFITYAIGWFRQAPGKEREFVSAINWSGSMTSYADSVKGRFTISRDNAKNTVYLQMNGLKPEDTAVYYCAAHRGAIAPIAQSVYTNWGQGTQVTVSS

B1: R166.G8 (antibody, V domains shown)
VH: LEQSGGGAEGGLVKPGGSLELCCKASGFSLSNIYWICWVRQAPGTGLEWIGCINSGSNSYTYYANWVDGRFTLSRDIDQSTGCLQLNSLTAADTAMYYCARDRDAADTSDWSLNFWGQGTLVTVSS
VL: QVLTQTPSSVSAAVGGTVTISCQSSDSVNNDNWLAWYQQKPGQPPKLLIYQASKLASGVPSRFSGSGSGTQFTLTISGVQCDDAANYYCQGTGYSSTWYVAFGGGTEVVVKG
notes: Rabbit monoclonal; also called clone R166.G8
binds: all assays above

B2: R166.G10 (antibody, V domains shown)
VH: QSVEESGGRLVTPGTPLTLTCTVSGFSLSSSAVSWVRQAPGKGLEYIGIIGSGGSTYYASWVNGRFTISKTSTTVDLKMTSLTAADTATYFCARYGGNSGGYDSFNLWGQGTLVTVSS
VL: DVVMTQTPASVSEPVGGTVTIKCQASQSIYSHLSWYQQKPGQPPKLLIHGASTLASGASSRFKASGSGTEFTLTISDLECADAATYYCQCTAGTSIYGNAFGGGTEVVVRG
notes: Rabbit monoclonal; also called clone R166.G10
binds: all assays above

B3: R166.F2 (antibody, V domains shown)
VH: QSVEESGGRLVTPGTPLTLTCTASGFTISSHDMSWVRQAPGKGLEWIGYIYYGSGSTDYASWAEGRFTITRNTNENTVTLKMTSLTTEDTATYFCARGGYVGGGVDAFDPWGPGTVVTVSS
VL: AYDMTQTPASVEVAVGGTVTIKCQASQSIYTYLSWYQQKPGQPPKLLIYRASTLASGVSSRFKGSGSGTDFTLTISGAQCADAATYYCQQGALSSNIHNTFGGGTEVVVKG
notes: Rabbit monoclonal; also called clone R166.F2
binds: all assays above

B4: R166.G2 (antibody, V domains shown)
VH: QSLEESGGRLVKPDETLTITCTVSGIDLSSDAMSWVRQAPGKGLEWIGLINRYGNTYYASWAKGRFTISKTSTTVDLKVTSLTTEDTATYFCARYGTDSDFYFLDLWGQGTLVTVSS
VL: DIVMTQTPASVSEPVGGTVTIKCQASQSIYSYLSWYQQKPGQRPKLLIYKASKLVSGVPSRFRGSGSGTEFTLTISDLECADAASYYCQSDWLISSNGNTFGGGTEVVVTG
notes: Rabbit monoclonal; also called clone R166.G2
binds: all assays above

B5: R166.H8 (antibody, V domains shown)
VH: QSVEESGGRLVTPGTPLTLTCTVSGFSLSSFAMSWVRQAPGKGLEWIGIIYATGGTRDYATWAAGRFTISKTSTTVGLKMTSPTTEDTATYFCARDRSPDYSAAFNLWGQGTLVTVSS
VL: IVMTQTPSSKSVPVGDTVTINCQASESVYSNNHLAWFQQKPGQPPKLLIYSASTLESGVPSRFKGSGSGTQFTLTISGVQCDDAATYYCAGYKSSDTDGTSFGGGTEVVVKG
notes: Rabbit monoclonal; also called clone R166.H8
binds: all assays above

B6: R166.E7 (antibody, V domains shown)
VH: QSVEESGGRLVTPGTPLTLTCTVSGFSLSSFAMSWVRQAPGKGLEWIGIIYTGGTRDYATWAKGRFTISKTSTTVDLKMTSPTTEDTATYFCARDRSPDYSAAFNLWGQGTLVTVSS
VL: IVMTQTPSSKSVPVGDTVTINCQASESVYSNNHLAWFQQKPGQPPKLLIYSASTLESGVPSRFKGSGSGTQFTLTISGVQCDDAATYYCAGYKSSDTDGTSFGGGTEVVVKG
notes: Rabbit monoclonal; also called clone R166.E7
binds: all assays above

B7: R166.D1 (antibody, V domains shown)
VH: QSVEESGGRLVKPDESLTLTCTVSGFSLSNYDMIWVRQAPGKGLEWIGVIYPTGTTYYANWVKGRFTISKTSTTVGLLITSPTTEDTATYFCARKPILYVDSSGWYIDLWGQGTLVTVSS
VL: AYDMTQTPSSVSAAVGGTVSIKCQASENINNYLSWYQQKPGQPPKLLIYQASRLASAVPSRFKGSGSGTQFTLTIDDLECADAATYYCQQGHSVSNDVGNVFGGGTEVVVKG
notes: Rabbit monoclonal; also called clone R166.D1
binds: all assays above

B8: R166.G3 (antibody, V domains shown)
VH: QSVEESGGRLVTPGTPLTLTCTVSGIDLSRYAMGWVRQAPGKGLEYIGIIGYGGNTNYANWAKGRFTISKTSSTTVDLKMTSPTTEDTATYFCARDNKSGGNNGYPYYGLDLWGPGTLVTVSS
VL: AYDMTQTPASVEVPVGGTVTINCQASQSISSHLAWYQQKRGQPPKVLIYYASTLASGVSSRFKGSGSGTEYTLTISGVECADAATYFCHQSYSGSDVDNTFGGGTEVVVRG
notes: Rabbit monoclonal; also called clone R166.G3
binds: all assays above
